Assay results reported in publication PMC5576923.

Experiments:
[1] = biological target: β-Arrestin1 (human (endogenous in Caco-2 and HCT116)) (UniProt P49407); experiment: proximity ligation; Duolink II red kit on fixed, permeabilised cells; PTEN-/- HCT116 cells transfected 24 hr with GFP-tagged EV or PTEN constructs, HCT116 cells as positive control; signal as AI units, n = 35 cells per condition in triplicate
[2] = biological target: β-Arrestin1 (human (endogenous in Caco-2 and HCT116)) (UniProt P49407); experiment: co-IP; competition in cells: Caco-2 or HCT116 cells treated with 10 μM pep24 or 10 μM scrambled control peptide for 24 hr, then β-Arrestin1 immunoprecipitated and ARHGAP21 blotted

Chain of β-Arrestin1 (human (endogenous in Caco-2 and HCT116)) (P49407 whole entry): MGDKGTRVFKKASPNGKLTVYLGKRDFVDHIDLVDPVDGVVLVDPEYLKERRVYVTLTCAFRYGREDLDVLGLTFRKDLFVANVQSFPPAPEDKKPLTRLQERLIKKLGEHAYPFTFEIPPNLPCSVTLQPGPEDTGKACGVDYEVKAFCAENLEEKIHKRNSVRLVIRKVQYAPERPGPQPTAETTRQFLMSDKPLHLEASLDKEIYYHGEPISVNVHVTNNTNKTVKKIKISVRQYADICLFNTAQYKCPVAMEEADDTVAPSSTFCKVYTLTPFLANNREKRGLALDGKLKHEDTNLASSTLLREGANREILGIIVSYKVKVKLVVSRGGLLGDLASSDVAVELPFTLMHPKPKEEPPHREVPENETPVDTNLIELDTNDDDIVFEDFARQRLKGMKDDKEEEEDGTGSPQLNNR
Chain of cell permeant β-Arrestin1-ARHGAP21 binding disruptor peptide pep24 (Q5T5U3 1331-1355): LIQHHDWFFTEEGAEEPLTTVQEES

Row | PLA interaction AI [1] | fold change of β-Arrestin1-associated ARHGAP21 (ADU), pep24 vs control peptide, Caco-2 cells [2] | fold change of β-Arrestin1-associated ARHGAP21 (ADU), pep24 vs control peptide, HCT116 cells [2] | Substance
1 | 38.3 AI units | – | – | GFP-labeled isolated PTEN C2 domain (domain or fragment)
2 | – | 0.63 fold change | 0.39 fold change | cell permeant β-Arrestin1-ARHGAP21 binding disruptor peptide pep24 (from UniProt Q5T5U3 1331-1355)
